This is an account of results in paper PMC7083938, “NELL2-Robo3 complex structure reveals mechanisms of receptor activation for axon guidance” (Nature Communications, 2020).

Values joined by “and” are separate entries in the source; they are usually repeats but may differ in a detail not shown here. Identical values can stand only once.

T1: mouse Robo1 FN1–3 (mouse, UniProt O89026 524-835, biotin on the N-terminal amine (NHS-Biotin at pH 6.5))
T1 construct: Robo1, mouse, FN domains 1-3; also called mRobo1 FN1–3; source: High Five cells (baculovirus), secreted, purified (Ni-NTA, SEC)
T1 sequence (looked up): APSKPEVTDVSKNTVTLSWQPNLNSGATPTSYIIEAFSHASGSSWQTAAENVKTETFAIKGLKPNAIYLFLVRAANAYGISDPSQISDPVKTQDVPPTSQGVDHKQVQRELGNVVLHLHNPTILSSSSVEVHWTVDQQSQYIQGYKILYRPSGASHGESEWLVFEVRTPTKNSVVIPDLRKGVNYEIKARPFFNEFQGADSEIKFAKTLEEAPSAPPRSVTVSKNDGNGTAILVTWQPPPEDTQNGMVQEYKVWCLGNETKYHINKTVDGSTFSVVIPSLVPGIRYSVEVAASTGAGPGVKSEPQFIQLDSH

T2: biotinylated human Robo3 FN1–3 (Avi-tagged) (human, UniProt Q96MS0 558-869, biotin on the Avi-tag (BirA))
T2 construct: Robo3, human, FN domains 1-3; also called biotinylated hRobo3 FN1–3; hRobo3 FN1–3; source: High Five cells (baculovirus), secreted, purified (Ni-NTA, SEC), biotinylated with BirA
T2 sequence (looked up): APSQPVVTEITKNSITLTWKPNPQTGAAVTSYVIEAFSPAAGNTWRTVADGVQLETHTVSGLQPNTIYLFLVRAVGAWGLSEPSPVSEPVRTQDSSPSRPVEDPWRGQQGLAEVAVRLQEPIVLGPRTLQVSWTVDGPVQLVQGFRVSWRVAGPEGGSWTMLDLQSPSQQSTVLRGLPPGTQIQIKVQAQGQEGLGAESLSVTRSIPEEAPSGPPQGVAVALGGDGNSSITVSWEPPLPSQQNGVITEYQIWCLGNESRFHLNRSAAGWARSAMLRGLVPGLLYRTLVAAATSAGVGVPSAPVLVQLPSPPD

B1: mouse Robo3 FN1 domain (domain or fragment, UniProt Q9Z2I4 558-652, looked up)
chain: PPSQPIVTEVTANSITLTWKPNPQSGATATSYVIEAFSQAAGNTWRTVADGVQLETYTISGLQPNTIYLFLVRAVGAWGLSEPSPVSEPVQTQDS
notes: Robo3, mouse, FN1 domain; also called mRobo3 FN1; source: High Five cells (baculovirus), secreted, purified (Ni-NTA, SEC); not shown: His6, C-terminal, kept
B2: mNELL1 (full length) (ligand, mouse, UniProt Q2VWQ2 25-809, looked up)
chain: DPDLQMDIITELDLVNTTLGVTQVAGLHNASKAFLFQDVQREIHSAPHVSEKLIQLFRNKSEFTFLATVQQKPSTSGVILSIRELEHSYFELESSGPREEIRYHYIHGGKPRTEALPYRMADGQWHKVALSVSASHLLLHVDCNRIYERVIDPPETNLPPGSNLWLGQRNQKHGFFKGIIQDGKIIFMPNGFITQCPNLNRTCPTCSDFLSLVQGIMDLQELLAKMTAKLNYAETRLGQLENCHCEKTCQVSGLLYRDQDSWVDGDNCRNCTCKSGAVECRRMSCPPLNCSPDSLPVHISGQCCKVCRPKCIYGGKVLAEGQRILTKTCRECRGGVLVKITEACPPLNCSEKDHILPENQCCRVCRGHNFCAEAPKCGENSECKNWNTKATCECKNGYISVQGNSAYCEDIDECAAKMHYCHANTVCVNLPGLYRCDCIPGYIRVDDFSCTEHDDCGSGQHNCDKNAICTNTVQGHSCTCQPGYVGNGTVCKAFCEEGCRYGGTCVAPNKCVCPSGFTGSHCEKDIDECAEGFVECHNHSRCVNLPGWYHCECRSGFHDDGTYSLSGESCIDIDECALRTHTCWNDSACINLAGGFDCLCPSGPSCSGDCPHEGGLKHNGQVWILREDRCSVCSCKDGKIFCRRTACDCQNPNVDLFCCPECDTRVTSQCLDQSGQKLYRSGDNWTHSCQQCRCLEGEADCWPLACPSLSCEYTAIFEGECCPRCVSDPCLADNIAYDIRKTCLDSSGISRLSGAVWTMAGSPCTTCQCKNGRVCCSVDLVCLEN
notes: mouse NELL1, D25-N809; trimer by MALS; also called NELL1FL (Polyhedrin, mouse); source: High Five cells (baculovirus), purified (Ni-NTA, SEC)
B3: mouse NELL2 EGF1–6, wild type (domain or fragment)
chain: not shown
notes: NELL2, mouse, EGF domains 1-6; also called mNELL2 EGF1–6 WT; mNELL2 EGF1–6; source: High Five cells (baculovirus), secreted, purified (Ni-NTA, SEC)
B4: mouse Robo1 ectodomain (domain or fragment, UniProt O89026 20-858, looked up)
chain: SRLRQEDFPPRIVEHPSDLIVSKGEPATLNCKAEGRPTPTIEWYKGGERVETDKDDPRSHRMLLPSGSLFFLRIVHGRKSRPDEGVYICVARNYLGEAVSHNASLEVAILRDDFRQNPSDVMVAVGEPAVMECQPPRGHPEPTISWKKDGSPLDDKDERITIRGGKLMITYTRKSDAGKYVCVGTNMVGERESEVAELTVLERPSFVKRPSNLAVTVDDSAEFKCEARGDPVPTVRWRKDDGELPKSRYEIRDDHTLKIRKVTAGDMGSYTCVAENMVGKAEASATLTVQEPPHFVVKPRDQVVALGRTVTFQCEATGNPQPAIFWRREGSQNLLFSYQPPQSSSRFSVSQTGDLTITNVQRSDVGYYICQTLNVAGSIITKAYLEVTDVIADRPPPVIRQGPVNQTVAVDGTLILSCVATGSPAPTILWRKDGVLVSTQDSRIKQLESGVLQIRYAKLGDTGRYTCTASTPSGEATWSAYIEVQEFGVPVQPPRPTDPNLIPSAPSKPEVTDVSKNTVTLSWQPNLNSGATPTSYIIEAFSHASGSSWQTAAENVKTETFAIKGLKPNAIYLFLVRAANAYGISDPSQISDPVKTQDVPPTSQGVDHKQVQRELGNVVLHLHNPTILSSSSVEVHWTVDQQSQYIQGYKILYRPSGASHGESEWLVFEVRTPTKNSVVIPDLRKGVNYEIKARPFFNEFQGADSEIKFAKTLEEAPSAPPRSVTVSKNDGNGTAILVTWQPPPEDTQNGMVQEYKVWCLGNETKYHINKTVDGSTFSVVIPSLVPGIRYSVEVAASTGAGPGVKSEPQFIQLDSHGNPVSPEDQVSLAQQISDVVRQP
notes: Robo1, mouse, ectodomain; Mostly dimeric, in equilibrium with monomer and higher oligomers; also called mRobo1 ectodomain; mRobo1; source: High Five cells (baculovirus), secreted, purified (Ni-NTA, SEC)
B5: human NELL2 EGF domains 1-6 (domain or fragment)
chain: not shown
notes: NELL2, human, EGF domains 1-6; also called hNELL2 EGF1–6; NELL2 EGF1–6; source: High Five cells (baculovirus), secreted, purified (Ni-NTA, SEC)
B6: full-length mouse NELL2 (ligand, UniProt Q61220 25-819, looked up)
chain: LGVDPSLQIDVLTELELGESTDGVRQVPGLHNGTKAFLFQESPRSIKASTATAERFFQKLRNKHEFTILVTLKQIHLNSGVILSIHHLDHRYLELESSGHRNEIRLHYRSGTHRPHTEVFPYILADAKWHKLSLAFSASHLILHIDCNKIYERVVEMPSTDLPLGTTFWLGQRNNAHGYFKGIMQDVHVLVMPQGFIAQCPDLNRTCPTCNDFHGLVQKIMELQDILSKTSAKLSRAEQRMNRLDQCYCERTCTVKGTTYRESESWTDGCKNCTCLNGTIQCETLVCPAPDCPPKSAPAYVDGKCCKECKSTCQFQGRSYFEGERNTVYSSSGMCVLYECKDQTMKLVENIGCPPLDCPESHQIALSHSCCKVCKGYDFCSEKHTCMENSVCRNLNDRAVCSCRDGFRALREDNAYCEDIDECAEGRHYCRENTMCVNTPGSFMCICKTGYIRIDDYSCTEHDECLTNQHNCDENALCFNTVGGHNCVCKPGYTGNGTTCKAFCKDGCRNGGACIAANVCACPQGFTGPSCETDIDECSEGFVQCDSRANCINLPGWYHCECRDGYHDNGMFAPGGESCEDIDECGTGRHSCTNDTICFNLDGGYDCRCPHGKNCTGDCVHEGKVKHTGQIWVLENDRCSVCSCQTGFVMCRRMVCDCENPTVDLSCCPECDPRLSSQCLHQNGETVYNSGDTWVQDCRQCRCLQGEVDCWPLACPEVECEFSVLPENECCPRCVTDPCQADTIRNDITKTCLDEMNVVRFTGSSWIKHGTECTLCQCKNGHLCCSVDPQCLQEL
modifications: biotin (NHS-Biotin) where captured on the SA chip for SPR
notes: NELL2, mouse; called full-length; the methods say that mature domains were cloned into pAcGP67A; Trimer by MALS; also called mNELL2; mNELL2 ectodomain; source: High Five cells (baculovirus), secreted, purified (Ni-NTA, SEC); not shown: His6, C-terminal, kept

The data set “full-length mouse NELL2” deals with B6. In words: SEC; complex of full-length mNELL2 and mRobo3 FN1 purified by SEC; peak fractions quantified in triplicate by western blot against the His6 tag with 1:1 molar standards. To be noted: both partners purified. (Size exclusion chromatography separates by hydrodynamic size, large species first.)
Data set [1] deals with the molecule itself. In words: SEC-MALS; Superose 6 Increase 10/300 in HBS (10 mM HEPES pH 7.2, 150 mM NaCl), Wyatt HELEOS II.
The target of the next data set is T1, mouse Robo1 FN1–3. In words: SPR; mRobo1 FN1–3 biotinylated at the N-terminal amine (NHS-Biotin, pH 6.5), 315 RU captured on a Biacore SA chip; mNELL2 EGF1–6 as analyte; Langmuir isotherm. To be noted: both partners purified. (In general: Surface plasmon resonance follows binding to a sensor surface in real time, without labels.)
Data set [2] concerns the molecule itself. In words: AUC; sedimentation velocity, 20 °C, c(s) analysis in SEDFIT; single concentration 2.5 µM mRobo1 and 1.8 µM mRobo3 at 200,000 g, and concentration series (mRobo3 up to 20 µM).
Data set [3] addresses T2, biotinylated human Robo3 FN1–3 …. In words: SPR; biotinylated hRobo3 FN1–3 captured on an NLC (neutravidin) chip, ProteOn XPR36; NELL EGF constructs as analyte; 25 °C, 10 mM HEPES pH 7.2, 150 mM NaCl, 0.05% Tween-20, 0.1% BSA; equilibrium responses, 1:1 Langmuir model. To be noted: both partners purified.
Data set [4] concerns the molecule itself. Put plainly: SEC-MALS; Wyatt HELEOS II coupled to an AKTA FPLC, Superose Increase 6 10/300, HBS; Zimm model.
In the data set “mouse Robo1 ectodomain” the target is B4. Put plainly: SPR; mRobo1 ectodomain on a CM5 chip by random amine coupling (~1,200 R.U.); mNELL2 as analyte; KD from equilibrium responses assuming 50 to 100% active surface; buffer as for the other SPR experiments, 25 °C. To be noted: both partners purified.

As for B1, the stoichiometry N (as a rule, a count of units in the complex or per binding partner) in the data set with full-length mouse NELL2 is 3 mRobo3 FN1 per mNELL2 trimer. Turning to B2, the “stoichiometry N” value in data set [1] was found to be 3. On to B3, for which the Kd (as a rule, a measure of binding affinity in units of concentration) in the data set with mouse Robo1 FN1–3 came out at 14 µM. Consider B4, for which the “stoichiometry N” value in data set [2] worked out at 2. With B5, the Kd in data set [3] is 0.6 µM.

For the molecule B6, in data set [4], the “stoichiometry N” value came to 3. The dissociation constant (Kd) in the data set with mouse Robo1 ectodomain is ~350 µM and 190 to 400 µM.
